The record followed here is patent publication US20210317220A1 (Janssen / Centocor, published 2021).

One test addresses T1, soluble human CD154 (human, UniProt P29965 113-261).
T1 construct: also called sCD154; shCD154
T1 sequence: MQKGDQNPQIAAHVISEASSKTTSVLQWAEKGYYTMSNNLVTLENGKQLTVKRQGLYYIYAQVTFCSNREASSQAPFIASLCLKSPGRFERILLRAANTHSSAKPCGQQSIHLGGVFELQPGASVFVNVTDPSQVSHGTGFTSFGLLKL
Nature of the test: ELISA of free and total sCD154 in platelet poor plasma of dosed human participants. As to the method:
Mean free and total soluble CD154 (sCD154) concentrations were determined by ELISA in platelet poor plasma samples obtained from the participants administered C4LB231 according to the study described in Example 2. Free sCD154 concentration remained undetectable until 14 days after dosing indicating suppression of the target of […].

Test [1] concerns the target T2, rhesus monkey soluble CD154 (rhesus monkey, UniProt P63304 113-261, limits assumed).
T2 construct: Endogenous plasma protein measured in dosed animals; also called sCD154; free sCD154
T2 sequence (looked up): T1 sequence
Nature of the test: free and total sCD154 in platelet poor plasma of rhesus monkeys dosed IV or SC (3-month study). As to the method:
Rhesus monkeys were administered the anti-CD154 antibody C4LB231 intravenously (IV) or subcutaneously (SC) once weekly for 13 weeks. The control vehicle was 0.9% sterile saline (NaCl). Animals were dosed by IV or SC injection as described above for the 8-week study on days 1, 8, 15, 22, 29, 36, 43, 50, 57, 64, 71, 78, and 85 for a total of 13 doses. On days 29, 57, and 155 (recovery study animals only) animals received an intramuscular injection of a 1 mg dose of KLH antigen to the left thigh for a KLH-antigen challenge study. Blood samples were collected from the animals and evaluated as described below.
Free and total soluble CD154 (sCD154) were assessed in platelet poor plasma samples. […] The extent of reduction was greater at the higher dose levels. A dose-dependent decrease in free sCD154 coupled with dose-dependent increase in total sCD154 indicated good target engagement in plasma.

B1: anti-CD154 antibody C4LB231 (antibody, human IgG1, kappa, V domains shown)
VH: QVQLVQSGAEVKKPGSSVKVSCKASGGTFSSYGISWVRQAPGQGLEWMGWISPIFGNTNYAQKFQGRVTITADESTSTAYMELSSLRSEDTAVYYCARSRYYGDLDYWGQGTLVTVSS
VL: DIQMTQSPSSLSASVGDRVTITCRASQSISSYLNWYQQKPGKAPKLLIYYANSLQSGVPSRFSGSGSGTDFTLTISSLQPEDFATYYCQQSDSIPWTFGQGTKVEIKR
notes: Human IgG1σ mAb (Fc-silencing mutations L234A, L235A, G237A, P238S, H268A, A330S, P331S); also called C4BL231; C4BL231 (Fc silent)
Take B1: the binding result (in the test with soluble human CD154; in test [1]) was “binds” throughout.
